Km data for one protein are collected here from patent EP2669372A1, “HPPD variants and methods of use” (Bayer CropScience AG, priority 2010, dated 2012).

Substrate in the data set: O=C(O)C(=O)Cc1ccc(O)cc1
Put plainly: purified protein, by the assay type. The note with it: other: substrate HPP varied between 10 and 400 µM; SEQ ID No. 32; pH 7.8.

B1: Arabidopsis thaliana HPPD "SEQ ID No. 32" (Arabidopsis thaliana) (protein)
chain: MGHQNAAVSENQNHDDGAASSPGFKLVGFSKFVRKNPKSDKFKVKRFHHIEFWCGDATNVARRFSWGLGMRFSAKSDLSTGNMVHASYLLTSGDLRFLFTAPYSPSLSAGEIKPTTTASIPSFDHGSCRSFFSSHGLGVRAVAIEVEDAESAFSISVANGAIPSSPPIVLNEAVTIAEVKLYGDVVLRYVSYKAEDTEKSEFLPGFERVEDASSFPLDYGIRRLDHAVGNVPELGPALTYVAGFTGFHQFAEFTADDVGTAESGLNSAVLASNDEMVLLPINEPVHGTKRKSQIQTYLEHNEGAGLQHLALMSEDIFRTLREMRKRSSIGGFDFMPSPPPTYYQNLKKRVGDVLSDDQIKECEELGILVDRDDQGTLLQIFTKPLGDRPTIFIEIIQRVGCMMKDEEGKAYQSGGCGGFGKGNFSELFKSIEEYEKTLEAKQLVG
In general, Km refers to the substrate concentration at which the rate is half of its maximum. Consider B1, for which the Km was 6.3 µM.
